Data: US6492139 (Genentech, dated 2002)

Tests used:
[1] = biological target: T1, dSmo (Drosophila Smoothened, epitope tagged) (Drosophila, UniProt P91682 32-1036); assay: staining of transfected cells exposed to tagged ligand
T1 construct: also called dro.smo
T1 sequence: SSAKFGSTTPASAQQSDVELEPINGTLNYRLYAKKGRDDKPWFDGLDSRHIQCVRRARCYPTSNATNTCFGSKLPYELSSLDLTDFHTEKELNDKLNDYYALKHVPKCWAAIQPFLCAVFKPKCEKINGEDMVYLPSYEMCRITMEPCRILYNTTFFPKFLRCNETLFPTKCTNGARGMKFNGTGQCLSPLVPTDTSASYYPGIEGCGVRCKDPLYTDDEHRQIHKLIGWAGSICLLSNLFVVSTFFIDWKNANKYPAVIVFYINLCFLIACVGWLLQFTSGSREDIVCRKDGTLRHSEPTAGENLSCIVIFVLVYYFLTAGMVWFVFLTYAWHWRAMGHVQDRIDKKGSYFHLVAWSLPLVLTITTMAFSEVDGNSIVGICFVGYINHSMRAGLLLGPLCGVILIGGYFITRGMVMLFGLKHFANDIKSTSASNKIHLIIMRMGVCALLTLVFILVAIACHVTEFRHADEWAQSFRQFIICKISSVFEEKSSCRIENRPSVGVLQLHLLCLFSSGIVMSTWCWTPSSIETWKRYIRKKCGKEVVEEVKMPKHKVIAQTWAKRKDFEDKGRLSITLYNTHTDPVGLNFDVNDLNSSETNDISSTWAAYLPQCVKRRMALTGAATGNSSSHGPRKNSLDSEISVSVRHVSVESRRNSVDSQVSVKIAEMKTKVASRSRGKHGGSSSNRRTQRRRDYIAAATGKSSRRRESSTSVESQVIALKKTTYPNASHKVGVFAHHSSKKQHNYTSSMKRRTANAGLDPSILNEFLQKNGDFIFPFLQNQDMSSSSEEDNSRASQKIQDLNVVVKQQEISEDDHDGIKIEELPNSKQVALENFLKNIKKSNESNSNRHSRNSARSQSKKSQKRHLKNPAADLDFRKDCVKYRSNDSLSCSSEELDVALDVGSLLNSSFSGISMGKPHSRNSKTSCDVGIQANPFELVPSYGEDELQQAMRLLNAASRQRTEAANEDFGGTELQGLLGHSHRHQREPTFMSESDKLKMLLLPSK

[2] = biological target: T2, Flag tagged rSmo (rat Smoothened with C-terminal Flag epitope tag) (rat, UniProt P97698 33-793); assay: as above
T2 construct: Expressed transiently in COS-7 or 293 cells from pRK5
T2 sequence (P97698 33-793): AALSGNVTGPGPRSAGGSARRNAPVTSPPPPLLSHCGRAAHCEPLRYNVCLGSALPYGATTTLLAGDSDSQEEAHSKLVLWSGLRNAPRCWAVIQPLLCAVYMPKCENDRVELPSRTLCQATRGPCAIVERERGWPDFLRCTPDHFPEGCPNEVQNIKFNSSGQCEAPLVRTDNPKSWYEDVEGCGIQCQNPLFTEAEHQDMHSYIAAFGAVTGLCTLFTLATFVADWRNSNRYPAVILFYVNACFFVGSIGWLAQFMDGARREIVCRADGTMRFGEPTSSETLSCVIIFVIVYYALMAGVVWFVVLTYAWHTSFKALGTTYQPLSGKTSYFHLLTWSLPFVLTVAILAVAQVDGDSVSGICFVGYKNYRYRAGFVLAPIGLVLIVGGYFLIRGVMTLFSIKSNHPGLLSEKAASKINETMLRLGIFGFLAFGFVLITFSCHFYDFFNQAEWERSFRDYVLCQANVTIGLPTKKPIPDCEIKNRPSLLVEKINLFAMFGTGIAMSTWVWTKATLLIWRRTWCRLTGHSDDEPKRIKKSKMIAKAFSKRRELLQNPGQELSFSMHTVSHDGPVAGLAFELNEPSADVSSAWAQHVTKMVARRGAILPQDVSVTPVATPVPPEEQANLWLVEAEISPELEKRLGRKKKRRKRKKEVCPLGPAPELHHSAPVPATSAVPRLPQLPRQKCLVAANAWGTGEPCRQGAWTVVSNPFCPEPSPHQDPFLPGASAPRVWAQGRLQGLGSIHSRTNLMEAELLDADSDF

B1: epitope tagged Desert HH (ligand, not shown: small tags and cut ends)
chain: not shown
[1]
  binding result: no binding
[2]
  binding result: no binding
